Experimental data reported in a protein production outcome set (Wang et al. 2014).

Test: label from the status in PepcDB records
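Also: failed if final PepcDB status was selected cloned or expressed and not failed if soluble or beyond.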

| Sequence | protein production |
| --- | --- |
| KESLQVTLYRDNHAWCPYCQKVWLWLEEKQIPYRIKKVTMFCYGEKEDWYKKLVPSGMLPALELDGRFYTESDDILIALEKAFGPLLWAMEDPLVLPLRKLERLLFRAWCNWLCYPAM | failed |
| KGKSFIWIKRQLDPKVAEEVKALGLENFVFEKELKRHYPMGNLFAHVIGFTDIDGKGQEGLELSLEDSLYGEDGAEVVLRDRQGNIVDSLDSPRNKAPQNGKDIILSLD | failed |
| KGLDKWGIYVPESAAQSVKDAVFEAGAGAIGDYSQCSFEWQGTGQFLPHHNAQPVVGHPGQLERTEELRVEFVAPARLRTTLIDAIRAAHPYEEPAFDVVSMQSTQDLETAEGLGRVGTLPEPMRFGDFVQQVADALPETSWGIRAAGDPEQMVHTVAVSSGSGDSFLDAVAALGVDVYVTSDLRHHPADESRRAQGPLLIDTAHWASEFPWTYQVQELLAQEFAQLDVEVATLRTDPWNISAHPQLR | not failed |
| KHLSLTPELYKYLLDISLREHPALAALRKETSTMELANMQVAPEQAQFMQMLIRLTRAKKVLELGTFTGYSALAMSLALPDDGQVITCDINEGWTKHAHPYWREAKQEHKIKLRLGPALDTLHSLLNEGGEHQFDFIFIDADKTNYLNYYELALKLVTPKGLIAIDNIFWDGKVIDPNDTSGQTREIKKLNQVIKNDSRVFVSLLAIADGMFLVQPI | not failed |
| KIRSYTSIWSVEKVLYSINDFRLPFPITFTQMTWFVVSLFAVMILGNVPPLSMIEGAFLKYFGIPVAFTWFMSTKTFDGKKPYGFLKSVIAYALRPKLTYAGKKVTLGRNQPQEAITAVRSEFY | failed |
| KITRLTTYRLPPRWMFLKVETDEGVTGWGEPVIEGRARTVEAAVHELSDYLIGQDPSRINDLWQTMYRAGFYRGGPILMSAIAGIDQALWDIKGKVLGVPVYELLGGLVRDKMRTYSWVGGDRPADVIAGMKALQAGGFDHFKLNGCEEMGIIDTSRAVDAAVARVAEIRSAFGNTVEFGLDFHGRVSAPMAKVLIKELEPYRPLFIEEPVLAEQAETYARLAAHTHLPIAAGERMFSRFDFKRVLEAGGVSILQPDLSHAGGITECVKIAAMAEAYDVALAPHCPLGPIALAACLHVDFVSWNATLQEQSMGIHYNKGAELLDYVRNKADFALEGGYIRPPRLPGLGVDIDEALVIERSKEAPDWRNPVWRHADGSVAEW | not failed |
| KKISSTAVIELALDLATSLNTKDRFDRLLDTVRKTITCDAVALLSYHGDVLKPIALQGLSRDTLGRRFYVEEHPRFLALCQSKSPIRFAADSPLPDPYDGLLIDREGDLPVHSCMGLPLYYDDKLLGLLTIDSLTPHDFEDIDVRMLEVISAIAAATLNTAFLLDQLESRADHSQRVVAELTEEAWKRDGGE | failed |
| KKPKHHVLSHDIIPASKPIAEKLQIQPESPVVELKRILYNDDQPLTFEVTHYPLDLFPGIDTFIADGVSMHDILKQQYKVVPTHNTKLLNVVYAQQEESKYLDCDIGDALFEIDKTAFTSNDQPIYCSLFLMHT | not failed |
| KKSKYMTPMQQKLNEVYEAVKNYTDKRGRRLSAIFLRLPSRSELPDYYLTIKKPMDMEKIRSHMMANKYQDIDSMVEDFVMMFNNACTYNEPESLIYKDALVLHKVLLETRRD | not failed |
| KLLAITSCPNGIAHTYMAAENLQKAADRLGVSIKVETQGGIGVENKLTEEEIREADAIIIAADRSVNKDRFIGKKLLSVGVQDGIRKPEELIQKALNGDIPVY | not failed |
| KQLGPHTYLVSGRMEIDDVNERFGLSLPESDDYLTVAGFILNSHQNIPQANEVVEIAPYTFTILRSSSTKIELVKMSIDD | not failed |
| KRFEFVGWGSRQLIEFLHSLGKDTSEMISRYDVSDTIAKYISKEGLLDPSNKKKVVCDKRLVLLFGTRTIFRMKVYDLLEKHYKENQD | not failed |
| KRPGNILIGTLPVGLDFPTRIVAEIVDAPSLTIEEIMRKAKYYLREGADIIDIGMESGKTNVEFLESVLPEIKEKINAPLSLDTLNPKEIEAGEKEVDLILSVDFGTVEEILPSKPVVLIPTNMKEGKFIEDPIGRAKALEKLKEKALNLGYKGLILDPILEHYPNFSRSLVAFYLYRMRNPQDILLAGVGNITEMMDADSVGLNALLASIAGELKISLLLTTEVSPKATGSVRELKRGIDMVLL | failed |
| KRSHLENALNYALENSETAYNEMFLECDKQFILESWLNDFDLTKDYNETMHLVFSIKDKPDEETMQGLLHSTWESLKIRLPEYKFALVPHAHQDHAHIHCFINKTNQLTRRRLRFKGHEDCKEFFNELRSEFAYRLNDHLLSEEYLYVNEPKLKELDNIKQQLQDLEKEEKALEQIKSPQDEWDLNKALQSEYLQELKYKNKAKALDIQNNHSTPLKQKISEFKIALFNHKDTSDDEKEQLDIDRIDKRKPVSEHLKNTNKHELYELLGFYQKELDKKQNHSAFKNFAILNGLDRDFERETNGYSVLKKKEMLLNKLEHLDKRLLDKNSHLLLAQ | failed |
| KRVFGFVSAKGGDGGSCIAANFAFALSQEPDIHVLAVDISLPFGDLDMYLSGNTHSQDLADISNASDRLDKSLLDTMVQHISPSLDLIPSPATFEKIVNIEPERVSDLIHIAASFYDYIIVDFGASIDHVGVWVLEHLDELCIVTTPSLQSLRRAGQLLKLCKEFEKPISRIEIILNRADTNSRITSDEIEKVIGRPISKRIPQDEDAMQESLLSGQSVLKVAPKSQLSKTIVDWALHLNGV | not failed |
| KSAVTAQSILEKADEIRFPQDSFQVNVAIRTAAPDHAEDLYRYQVLSKGNENSIVMITEPASERGQAILMKGRDLWVFMPSVSQPIRLSLSQRLTGQVANGDIARANFTGDYHPQLLRNESIDDEDYYVLELTGIDRSVTYQKVLLWVNQSNFRPYKAEFYSVSGRLLKTSRYENFDNILGEMRPTRIIMEDALKSGEVSVLDYSDMKLRDLPDKIFTKDYLKRLE | not failed |
| KVDPSDFSDVLIAHTVMKPFPDAPTALYQIKAKGYETVLMTNHSRDLIQSNVINLDHEFDMIITAEDVQTYKPNQKFFDYVNDQLGNDVEKHVHVAVDEVKDLKPAQDAGWNVIKIDRKSEDAS | failed |

| Sequence | protein production |
| --- | --- |
| KWIFREPSRTDGDDVYALITECPPLDINSSYCNFLQATHFSKTCVLAEKDGDLAGFISGYQEPDEPNTLFIWQVAVSPRYRGKGLAFSMLTTLLERKNLLHIEFIETTITKANNASWSLFKKIDAQYGNQGQVTTFLDKESHFKGKHDTEYLYRIPL | failed |
| KWLDYDFTSLRKEILDKAFQKSLTQINWIMGGYYLVMESLSFFEYEQSIQSKTVRHLILVFYLLFFMGVIKKLDTYLKEKLYERLEQEQALRYRDMERYSRHIEELYKEVRSFRHDYTNLLTSLRLGIEEEDMEQIKEVYGSVLKDSSQKLQNNKYDLGRLVNIRDKALKSLLAGKFLKARDKNIVFNVEVPEEIQVEGMSLLDFLTIVSILCDNAIEASVEASQPHVSIAFLKNGAQETFIIENSIKEEGIDISEIFSFGASSKGEERGVGLYTVMKIVESHPNTSLNTTCQNQVFRQVLTVIHTE | failed |
| LADVKHAQSQALFKEHMLETIFNAIPDLFFLMEVDGMIVDYHTGDQKNLYVAPHQFIGKRMTDLLPQEVVSKFQTHVDKILQQEGMITFEYELTMPHGLVHFEARMSYLPEYNQIVLIIRDIS | failed |
| LAEKAGIGVWSYEPETQRIDWAPDALALMGVSPEDIATPELFLARLPENHRAEVQAAFVHAARTGEGGTLEYRLRANDGRWFTLRATYRTEARPGSGFALKGVSQNITDVARS | failed |
| LDALRRYHRQTLQELPMGVCSLAKDQEILMWNKAMEELTGIPAQHVVGSRLSTITNPWKDLLQGFINLPDEHLHKQHLALDGQTRWLNLHKAAIDEPLAPGNSGLVLLVEDLTETQTLEDKLVHSERLASIGRLAAGVAHEIGNPITGI | failed |
| LDHITVVTADGKVALNQIGQISMKSPQVILVNMASFPECTAAAIKAIRESGMNLNPEVEGTLIRVPIPKVT | not failed |
| LDLQIIMDDLLNLLLKEFKLDLAVIRLVDEKGVLRVRSYSGKGIAGIAGKDWEPEIETYIGEAFLSNRLQFVNDTQYMTKPLTRELMQKEGIKSFAHIPISRKGEPPFGILSVFSRTIVGLFNEPFLNLLESLAGQLAQAVKIVTEMEAKEREREEKERILLENARVVKEMEIAKQIQLSLLPSAPPTLPRH | failed |
| LDPGLQPGQFSADEAGAQLFAQSYQSSAEQVLFQSVAASWAHDTNITAENARRQEEAALLSQEFAEAWGQKAKELYEPIWQQFTDPQLRRIIGAVRTLGSANLPLAKRQQYNALLSQMSRIYSTAKVCLPQKTATCWSLDPDLTNILASSRSYAMLLFAWEGWHNAAGIPLKPLYEDFTALSNEAYKQDGFTDTGAYWRSWYNSPTFEDDLEHLYQQLEPLYLNLHAFVRRALHRRYGDRYINLRGPIPAHLLGDMWAQSWENIYDMVVPFPDKPNLDVTSTMLQQGWQATHMFRVAEEFFTSLELSPMPPEFWEGSMLEKPADGREVVCHASAWDFYNRKDFRIKQCTRVTMDQLSTVHHEMGHIQYYLQYKDLPVSLRRGANPGFHEAIGDVLALSVSTPEHLHKIGLLDRVTNDTESDINYLLKMALEKIAFLPFGYLVDQWRWGVFSGRTPPSRYNFDWWYLRTKYQGICPPVTRNETHFDAGAKFHVPNVTPYIRYFVSFVLQFQFHEALCKEAGYEGPLHQCDIYRSTKAGAKLRKVLRAGSSRPWQEVLKDMVGLDALDAQPLLKYFQLVTQWLQEQNQQNGEVLGWPEYQWHPPLPDNYPEGIDLVTDEAEASKFVEEYDL | not failed |
| LDVGCNQGGFLRKLYDTTPFKEGVGIDLARLSLEKAETLKGERPLTYYLTDKPQETNRTFDTAVSTSVLYLIEDIPQHAQDLKEVLKPGGVYYASFADLTNNPSRQFMDDTINQYGATPSQNHSLKHIVDSFVDAGFEVAVMKEPVPDVIDLTHYSDFYLSPNDYLQTLYEESFLIKASVKEGIGK | failed |
| LEAPRDLEAKEVTPRTALLTWTEPPVRPAGYLLSFHTPGGQTQEILLPGGITSHQLLGLFPSTSYNARLQAMWGQSLLPPVSTSFTTGGLRI | not failed |
| LEEFKNSSKLVAAAEKERLDKHLGIPCNNCKQFPIEGKCYKCTECIEYHLCQECFDSYCHLSHTFTFREKRNQKWRSLEKRADEV | not failed |
| LEIKQLLNIYRDLQLGHFCAFYQPQKHIDSGGVVAFEALARRVIGKGLYEMPDRFFPILEKYHLIPTLTEVMVRDILTFLMTEDAVLQDITIGVNIPGKMLTDGSFYRLLLSVAEEKQAQHALHRLSVEITEHDLIADFDAAKHEIYKLKSLGIRCALDDFGTGYSGYEYLCEIPFDVVKIDGRYIQSLGKAESSTVILQSMISSIKSLSMQVIAEWVDSDQQYQILQEMGCDLVQGYLVSPAISPQQVLNYLHNKLSP | failed |
| LERDEQIRLQDDFLFRSQFNIGNIGIAITGIDQKWIKVNPRLCQMLKYSEDELLHMTWKQLTHPDDLDADVAKFEQMLAGNIDNYELDKRFIAKNGSLVYTHMTVACKRTNHQVLLVISGYLDVTAQTLADRE | failed |
| LERMVQTRRGLEIIIDAASTLYDFKSMQRLAEGVLTQLASLLNVDCAGILVLRDAGDELAVLAGSGCYSRFIGTTGHSNSLDPDLRQMVEEAFRRRKHEFADHRTVLYIRTGSGREVVVLLQAERELSDTDRSLVEIFGSRLSIAFDNVILYRQLHEANTQ | failed |
| LEVLVKTLDSQTRTFIVGAQMNVKEFKEHIAASVSIPSEKQRLIYQGRVLQDDKKLQEYNVGGKVIHLVERAP | not failed |
| LFSDASGEQRLQKIIGQIKKDGSGKDYDCIIGLSGGVDSSYLAVKVKDLGLRPLVVHVDAGWNSELAVSNIEKIVKYCGFDLHTHVINWEEIRDLQLAYMKAAVANQDVPQDHAFFASMYHFAVKNNIKYILSGGNLATEAVFPDTWHG | failed |
